{"source": "the DeepSol protein solubility set", "data": [{"assay": "soluble on expression in E. coli; label from the status in PepcDB or PDB records", "values": [{"sequence": "PRVELEIPEDVDAEQDHLDITVEGDNGSVTRRLWYPDIDVSVDGDTVVIESDEDNAKTMSTIGTFQSHIENMFHGVTEGWEYGMEVFYSHFPMQVNVEGDEVVIENFLGEKAPRRTTIHGDTDVEIDGEELTVSGPDIEAVGQTAADIEQLTRINDKDVRVFQDGVYITRKPNRGDA", "soluble on expression in E. coli": "soluble"}, {"sequence": "MGSDKIHHHHHHMNNSEKMLVCLDQQDLDKADKYFKRALVQDDSETLLSLAAYLEGIGFFPQARQIYEQVKEEFPEVLINLAQIAFEDGLVEEAFRYLEEISEDSSIYVEALLVKADLYQAEGLSDVAREKLLEASHLSDKPIILFGLAELDMELELFNEAISYYAQLDNREIYELTGISTYQRIGIAYASLGKFEAAIEFLEKAVELEYDDQTVFELAALLFEREEYQKANLYFKQLDTINPDFEGYEYAYAQSLHAEHKIDDALAMTQKGLAKNDFDANLLFQASQYAYELHDEAGAEDYLLRAKEVADDSNELALRLSNLYLEQERFEEVVALFDEEVDNVLARWNKAKAYQALERDDEAIALYDELAGELAENPEFLADYVAVLRQLGRLDEAKEQASRYIQLVPDDLAMQEFLNEE", "soluble on expression in E. coli": "not soluble"}, {"sequence": "MSLRNKIKSWLLNASEYDFTDIKEGIRLHLNESPFEPPQFIIDAVKMYLSKGNRYQHPDLLEKYRELAAEYSKVEPENIYPSVGADGSIRAIFYNLVEPGDTILTNYPSYSMYSVYSSVRGTKVIKVNLKEDNEWWKENTDDLLAQAEKVELVIIDDPNNPTGSPMLNGKKELIGQLAENTKGFVVIDEAYYEFGGYTVSPYIYDYPNVLVVRTLSKAFSLASYRLGYTIANEEIVKALMKSSTPFDIPLPSLIAGITALENPSYIKDVVNIVNRNREILYQGLKNLNLKVYKSITNFLLIKDNRNLQEMLMRHGIAIRKLYDNFYRITIGTEDQCKMVIDKLGEELENSNSEGHHHHHH", "soluble on expression in E. coli": "soluble"}, {"sequence": "MNKERQDLSGLEAVWLFGYGSLIYKVDFPYLERAAASIQGWSRRFWQGSHDHRGTPEAPGRVLTLTETPGEECTGMAYKVSPDVFEHLDHREKNGYLRFTTPMSFRDGSQQEGLVYIATEDNEAFLGEATASEIASHIARSSGPSGPNAEYLVKLQLALQQLGVNDPHITQVYEALMADRASLEHHHHHH", "soluble on expression in E. coli": "soluble"}, {"sequence": "AHHHHHHGSGWWYTTNLRSRSNDMDKPEEILNEKDIIKRAYKFGFYVGLHGHTDWFGWVAEVKKKIYEEAKHLGVYEEVKKAYIKGKKAGRVEREKRIHLGLMKQTTSEIPEKIKIVSIERNRGSIASLNFPKIEDMPKTIKKPRFFRLPKILRGGEE", "soluble on expression in E. coli": "not soluble"}, {"sequence": "MSPLNFTHILTQTVDELSESESYKGLFHQHKDGEPLPSPRVLCDVIELARSILFPGYYGNSTVNSRTINYHIGVNVEKLFNLLTEQILAGLCFGNGDRCDECTEAKREEAARLAAKFISKLPHLRRVLATDVEAAYNGDPAAQSFGEVIFCYPAIKAISNYRIAHELLELGVPLIPRIITEMAHSETGIDIHPGARIGTHFTIDHGTGVVIGATSIIGNNVKLYQGVTLGARSFPLDADGKPIKGIPRHPILEDNVIVYSNATILGRITIGRDATVGGNIWVTENIPAGARIVQTKAKKLEHHHHHH", "soluble on expression in E. coli": "soluble"}, {"sequence": "MGSDKIHHHHHHMAFILMQNINKTFHGVKALNRVNLSLDYGEALCLAGQNGCGKSTLIKILSGVYQPDKGAEIQIGASKYTKLTPQASIEQGIQVIYQDLALFPNLTVAENIAINLHRKLGWVSQSEIHQVALNAILSINADLDLNAILEDLPIAQQQLVAICRALAQNARLLIMDEPTASLTAKEVQDLLKVVLKLKSKGISIIFVSHKLQEVMSVSDTVLVLKNGNMVGQYPISEMDEKRLGFLMTGLEIDYKRLDLPDFSQNRTVLEVQNLTLPNQYESINFSLREGEIIALTGLLGSGRTELCLSLFGITQPKSGDILLNGEKVIFQNNRDAIKQGIAYVSEDRMTTGLIMTESIHHNIISTIFHKITDKFNIIKSSKAYNYSQELIESLKIKVTDSDLPVNTLSGGNAQRVSIAKWLAIDPRIIILDAPTIGVDIANKEGIFQIIRTLAQKGIAVIFVTDEVEEAYYNSHKVIVMKKGKIVGEILPIYTTEKSIAEVVYENHQ", "soluble on expression in E. coli": "not soluble"}, {"sequence": "MSLENCKKVNYERVEKERESGSSISIRNFKREAYDSSGQLQWELRANESFVYVNENKTTFYDIDFDQYEAGKFKSKLLAEKGEINHKTRLMLLEGKILLKTDDHKILTAKTMEYNMDTKKLVSDSEVSVSADGTTIRGIGLRADKDLNKFTILKPTAITQGGTNPLKAAGSPEGHHHHHH", "soluble on expression in E. coli": "soluble"}, {"sequence": "AIALVSHGAIVKSAPKHWNGSKCPIRMQVRVPDPDRRSLLRAGAHIILGGLLATVIPGTSPSIAKIREKPTDKGEEAPKIDDEKELDKYVSGLKYEEELYENPDPAEKEVYRTPRVEREPEYKKKEDEILEKESKVLKEEAREAARESEVLRQEFEKR", "soluble on expression in E. coli": "soluble"}, {"sequence": "MGSDKIHHHHHHMRKLKREAYKLNNIKMLQQDVKYSEEVIEAEFSVEGYSLIDYKRSYTLSRALVNGKWIVYDGNRLESSQKIKEFEICEDFYHESVKAWPNKEKYSRLFTNIKLNEDDQLKVISKKISKSILIHDVKECREEKVVNYVEYNDLNFSYAGNPKDIPSIVEYLRASQSQLTSPSRQVLTESGRLTFILDSEIVASIFHYVLRNFLNGNSPKLKLNEKISSEITIYDNPLNSFSSSFSVFDDEGVKTKKKEIIGDGIITNYLGTLTSKYGEAGNARGILPKPDYFSLEVKQGDWSLNELIDESRGAYIAMGVKKSELIRNSIRITPRSVVKIGQGQIFFREIAIPLQELVTIDAVTRENRGVFIDEEHGGVTPYVRMKVRAILY", "soluble on expression in E. coli": "not soluble"}, {"sequence": "MGTMHTSELLKHIYDINLSYLLLAQRLIVQDKASAMFRLGINEEMANTLGALTLPQMVKLAETNQLVCHFRFDDHQTITRLTQDSRVDDLQQIHTGIMLSTRLLNEVDDTARKKRA", "soluble on expression in E. coli": "not soluble"}, {"sequence": "MGSDKIHHHHHHMTQPELTPAQRTEVELLARGRADKSRVLRDLKLPETPEAAHALLLRLGVWDEARTPYADRLRAALNAVELPVPDFDPAEERLDLTHLPTFAIDDEGNQDPDDAVGVEDLGGGLTRLWVHVADVAALVAPDSPLDLEARARGATLYLPDRTIGMLPDELVAKAGLGLHEVSPALSICLDLDPDGNAEAVDVLLTRVKVQRLAYQEAQARLEAGEEPFVTLARLARASRRLREGEGALSIDLPEVRVKADETGASVFPLPKPEMRTVVQECMTLAGWGTAIFADDNEIPLPFATQDYPTREVAGDTLPAMWARRKTLARTRFQPSPGPHHGMGLDLYAQATSPMRRYLDLVVHQQLRAFLAGRDPLSSKVMAAHIAESQMNADATRQAERLSRRHHTLRFIAAQPERVWDAVVVDRRGAQATLLIPDLAFDVQVNTPAAPGTALQVQFADIDLPQMRVRARSV", "soluble on expression in E. coli": "not soluble"}, {"sequence": "GPGSMSEELILQWAKRVSDAEEELHRMEEDINAVKQQRKLLKADIRKYEDVVASEKCDLLTSLERVEAQAKDLGAQCEATLTEKDRVEAEYMATLDAYENLHFLVREIKDAEEHLQSRDDLEACLQRESVTWAEEEHTLRRKLHELQQQQAQARRAQEAEVRELEAQLSNVEQRQRDERAGRCVEVAQAARRVVHSSRQPTPASPKPVTSAEEDAFVSANAGGAMPIRSAPLKSCLKTPVNGSTSGNAAPTAPRHTTAASAPVSRCASQSLVSDAAASGVQRQGVDGGDQPSLRLLQEMRAYSYGAPCKAGARKREFLGDATNNQ", "soluble on expression in E. coli": "soluble"}, {"sequence": "QIKSQGCRISRTFLLICSRGRKQRMKDSENKGASSPDMEPSYGGGLFDMVKGGAGRLFSNLKDNLKDTLKDTSSRVIQSVTSYTKGDLDFTYVTSRIIVMSFPLDNVDIGFRNQVDDIRSFLDSRHLDHYTVYNLSPKSYRTAKFHSRVSECSWPIRQAPSLHNLFAVCRNMYNWLLQNPKNVCVVHCLDGRAASSILVGAMFIFCNLYSTPGPAIRLLYAKRPGIGLSPSHRRYLGYMCDLLADKPYRPHFKPLTIKSITVSPIPFFNKQRNGCRPYCDVLIGETKIYSTCTDFERMKEYRVQDGKIFIPLNITVQGDVVVSMYHLRSTIGSRLQAKVTNTQIFQLQFHTGFIPLDTTVLKFTKPELDACDVPEKYPQLFQVTLDVELQPHDKVIDLTPPWEHYCTKDVNPSILFSSHQEHQDTLALGGQAPIDIPPDNPRHYGQSGFFASLCWQDQKSEKSFCEEDHAALVNQESEQSDDELLTLSSPHGNANGDKPHGVKKPSKKQQEPAAPPPPEDVDLLGLEGSAMSNSFSPPAAPPTNSELLSDLFGGGGAAGPTQAGQSGVEDVFHPSGPASTQSTPRRSATSTSASPTLRVGEGATFDPFGAPSKPSGQDLLGSFLNTSSASSDPFLQPTRSPSPTVHASSTPAVNIQPDVSGGWDWHAKPGGFGMGSKSAATSPTGSSHGTPTHQSKPQTLDPFADLGTLGSSSFASKPTTPTGLGGGFPPLSSPQKASPQPMGGGWQQGGAYNWQQPQPKPQPSMPHSSPQNRPNYNVSFSAMPGGQNERGKGSSNLEGKQKAADFEDLLSGQGFNAHKDKKGPRTIAEMRKEEMAKEMDPEKLKILEWIEGKERNIRALLSTMHTVLWAGETKWKPVGMADLVTPEQVKKVYRKAVLVVHPDKATGQPYEQYAKMIFMELNDAWSEFENQGQKPLY", "soluble on expression in E. coli": "soluble"}, {"sequence": "MGSDKIHHHHHHMDLLELKAFVFAVQTGSITQAAFQLGRVQSSVSLRIKQLETELGVELLSRDRGGVRTTARGQILYDYATRILALAQEAKGEVMSPNTGEIVRLGTIETISPDCIDSLVRLLSGFDGMGVDVYVDGALSLVESLREGRIHAAIVGAGFAPPECIRIPLYGEAMVLISSLKYPRIDLVNQIANEIFLVCKKESACSRHLAMLFMEGGFQPARISECGSFSILMSSVVRGMGIALVPLSAVLGSAHEKQVLIHPLSGHFSTFQVEFVCPQPKGRPILERLIEKISQEFVGQKPN", "soluble on expression in E. coli": "not soluble"}, {"sequence": "MDRGTVFTFSPKGDIIELPVGATALDFAFMVHTQVGCKCVGAKVNGRMVTIDHKLKSGDKVEIITSKNSKGPSLEHHHHHH", "soluble on expression in E. coli": "not soluble"}, {"sequence": "MELAAGSFSEEQFWEACAELQQPALAGADWQLLVETSGISIYRLLDKKTGLYEYKVFGVLEDCSPTLLADIYMDSDYRKQWDQYVKELYEQECNGETVVYWEVKYPFPMSNRDYVYLRQRRDLDMEGRKIHVILARSTSMPQLGERSGVIRVKQYKQSLAIESDGKKGSKVFMYYFDNPGGQIPSWLINWAAKNGVPNFLKDMARACQNYLKKT", "soluble on expression in E. coli": "soluble"}, {"sequence": "MPNQNFNAQLAEAISALNTPNFTPKLMSVIHSIFDFDCAIILGYREGKHPIYLYDSIENERELLFQRYLTNSFQNDPFFQNLNQHKQQGIFTLKDVAKKGIEYQTYRKQFYDQTGWKDELSMLVEIESGRWVILYFGCLREGKRFSAAQINNLRSHFSVLQSLCQQHWKQAEFNLSEPVVRPDAYTGNMKVAIEQALSSFGIE", "soluble on expression in E. coli": "not soluble"}, {"sequence": "MESLLTLPLAGEARVRILQITDTHLFAEKHETLLGVNTWESYQAVLEAIRAQQYEYDLIVATGDLAQDQSAAAYQHFAEGIASFRAPCVWLPGNHDFQPAMYSALQEAGISPAKRVLIGEQWQILLLDSQVFGVPHGELSEFQLEWLERKLADAPERQTLLLLHHHPLPAGCSWLDQHSLRNAGELDSVLANFPRVKYLLCGHIHQELDLDWNGRRLLASPSTCVQFKPHCANFTLDTIAPGWRTLELRANGVLETEVHRLQDTRFRPDTASEGY", "soluble on expression in E. coli": "not soluble"}]}]}
